T1: Ins 5 type mutant CALR protein on UT-7/TPO CALR Ins 5 cells (UniProt P27797 18-417)
T1 sequence (looked up): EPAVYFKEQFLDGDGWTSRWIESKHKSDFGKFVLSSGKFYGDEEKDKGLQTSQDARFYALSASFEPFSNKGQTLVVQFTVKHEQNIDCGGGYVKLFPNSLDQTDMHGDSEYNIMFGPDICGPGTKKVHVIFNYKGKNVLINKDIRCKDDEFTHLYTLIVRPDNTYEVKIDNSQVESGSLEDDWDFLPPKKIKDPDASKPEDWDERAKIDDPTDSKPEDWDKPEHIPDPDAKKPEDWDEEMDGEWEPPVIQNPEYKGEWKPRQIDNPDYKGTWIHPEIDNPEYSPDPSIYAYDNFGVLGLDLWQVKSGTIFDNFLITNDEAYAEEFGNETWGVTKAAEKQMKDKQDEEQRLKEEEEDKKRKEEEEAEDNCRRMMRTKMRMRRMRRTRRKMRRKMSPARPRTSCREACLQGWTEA

T2: protein having an Fc region and a His-tag added to the N-terminus of SEQ ID NO: 1
T2 construct: also called mutant CALR protein (antigen of the BLItz measurement); not shown: Fc region and His-tag at the N-terminus
T2 chain: RRMMRTKMRMRRM


How the values were obtained:
[1] = biological target: T1, Ins 5 type mutant CALR protein on …; assay: cell-based or functional assay
[2] = biological target: T2, protein having an Fc region and a …; assay: BLItz biolayer interferometry, Fc/His-SEQ ID NO: 1 protein on the biosensor
Procedure, shortened: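 The Fc/His-tagged protein was loaded at 0.1 mg/mL onto Anti-Penta-HIS or Protein A biosensors. Antibodies were run at 500, 100 and 50 nM by biolayer interferometry, and the dissociation constant was derived from these binding curves.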

Binder | Kd [2] | EC50 of cytotoxic activity (pM) [1]
Antibody 101 (bispecific antibody, human IgG1, kappa, L234A L235A) chain 1: not shown chain 2: DIQMTQSPSFVSASVGDRVTITCLASEDIYSYLAWYQQKPGKAPKLLIFAANRLQDGVPSRFSGGGSGTGFTLTISSLQPEDFATYFCLQGSKFPYTFGQGTKLEINRTVAAPSVFIFPPSDEQLKSGTASVVCLLNNFYPREAKVQWKVDNALQSGNSQESVTEQDSKDSTYSLSSTLTLSKADYEKHKVYACEVTHQGLSSPVTKSFNRGECGGGGSGGGGSQVQLVQSGGGVVQPGRSLRLSCKASGYTFTRYTMHWVRQAPGKGLEWIGYINPSRGYTNYNQKVKDRFTISRDNSKNTAFLQMDSLRPEDTGVYFCARYYDDHYSLDYWGQGTPVTVSSGGGGSGGGGSGGGGSDIQMTQSPSSLSASVGDRVTITCSASSSVSYMNWYQQTPGKAPKRWIYDTSKLASGVPSRFSGSGSGTDYTFTISSLQPEDIATYYCQQWSSNPFTFGQGTKLQITR | < 0.001 nM | 1660 pM
Antibody 103 (bispecific antibody, human IgG1, kappa, L234A L235A) chain 1: not shown chain 2: DIQMTQSPSSLSASVGDRVTITCLASEDIYSYLAWYQQKPGKAPKLLIFAANRLQSGVPSRFSGSGSGTDFTLTISSLQPEDFATYYCLQGSKFPYTFGPGTKVDIKRTVAAPSVFIFPPSDEQLKSGTASVVCLLNNFYPREAKVQWKVDNALQSGNSQESVTEQDSKDSTYSLSSTLTLSKADYEKHKVYACEVTHQGLSSPVTKSFNRGECGGGGSGGGGSQVQLVQSGGGVVQPGRSLRLSCKASGYTFTRYTMHWVRQAPGKGLEWIGYINPSRGYTNYNQKVKDRFTISRDNSKNTAFLQMDSLRPEDTGVYFCARYYDDHYSLDYWGQGTPVTVSSGGGGSGGGGSGGGGSDIQMTQSPSSLSASVGDRVTITCSASSSVSYMNWYQQTPGKAPKRWIYDTSKLASGVPSRFSGSGSGTDYTFTISSLQPEDIATYYCQQWSSNPFTFGQGTKLQITR | < 0.001 nM | 399 pM
Antibody 111 (bispecific antibody) chain 1: not shown chain 2: DIQMTQSPSSLSASVGDRVTITCLASEDIYSYLAWYQQKPGKAPKLLIFAANRLQSGVPSRFSGSGSGTDFTLTISSLQPEDFATYYCLQGSKFPYTFGPGTKVDIKRTVAAPSVFIFPPSDEQLKSGTASVVCLLNNFYPREAKVQWKVDNALQSGNSQESVTEQDSKDSTYSLSSTLTLSKADYEKHKVYACEVTHQGLSSPVTKSFNRGEC chain 3: DKTHTCPPCPAPEAAGGPSVFLFPPKPKDTLMISRTPEVTCVVVDVSHEDPEVKFNWYVDGVEVHNAKTKPREEQYNSTYRVVSVLTVLHQDWLNGKEYKCKVSNKALPAPIEKTISKAKGQPREPQVCTLPPSREEMTKNQVSLSCAVKGFYPSDIAVEWESNGQPENNYKTTPPVLDSDGSFFLVSKLTVDKSRWQQGNVFSCSVMHEALHNHYTQKSLSLSPGK | 12.8 nM | 6110 pM
Antibody 110 (bispecific antibody) chain 1: not shown chain 2: DIQMTQSPSSLSASVGDRVTITCLASEDIYSYLAWYQQKPGKAPKLLIFAANRLQSGVPSRFSGSGSGTDFTLTISSLQPEDFATYYCLQGSKFPYTFGPGTKVDIKRTVAAPSVFIFPPSDEQLKSGTASVVCLLNNFYPREAKVQWKVDNALQSGNSQESVTEQDSKDSTYSLSSTLTLSKADYEKHKVYACEVTHQGLSSPVTKSFNRGEC chain 3: DKTHTCPPCPAPEAAGGPSVFLFPPKPKDTLMISRTPEVTCVVVDVSHEDPEVKFNWYVDGVEVHNAKTKPREEQYNSTYRVVSVLTVLHQDWLNGKEYKCKVSNKALPAPIEKTISKAKGQPREPQVCTLPPSREEMTKNQVSLSCAVKGFYPSDIAVEWESNGQPENNYKTTPPVLDSDGSFFLVSKLTVDKSRWQQGNVFSCSVMHEALHNHYTQKSLSLSPGK | 5.33 nM | 2540 pM

Now from value to binder, other results behind:

Kd [2] | Binder | EC50 of cytotoxic activity (pM) [1]
< 0.001 nM | Antibody 100 (bispecific antibody, human IgG1, kappa, L234A L235A) chain 1: not shown chain 2: DIQMTQSPSFVSASVGDRVTITCLASEDIYSYLAWYQQKPGKAPKLLIFAANRLQDGVPSRFSGGGSGTGFTLTISSLQPEDFATYFCLQGSKFPYTFGQGTKLEINRTVAAPSVFIFPPSDEQLKSGTASVVCLLNNFYPREAKVQWKVDNALQSGNSQESVTEQDSKDSTYSLSSTLTLSKADYEKHKVYACEVTHQGLSSPVTKSFNRGECGGGGSGGGGSQVQLVQSGGGVVQPGRSLRLSCKASGYTFTRYTMHWVRQAPGKGLEWIGYINPSRGYTNYNQKVKDRFTISRDNSKNTAFLQMDSLRPEDTGVYFCARYYDDHYSLDYWGQGTPVTVSSGGGGSGGGGSGGGGSDIQMTQSPSSLSASVGDRVTITCSASSSVSYMNWYQQTPGKAPKRWIYDTSKLASGVPSRFSGSGSGTDYTFTISSLQPEDIATYYCQQWSSNPFTFGQGTKLQITR | 1080 pM
< 0.001 nM | Antibody 102 (bispecific antibody, human IgG1, kappa, L234A L235A) chain 1: not shown chain 2: DIQMTQSPSFVSASVGDRVTITCLASEDIYSYLAWYQQKPGKAPKLLIFAANRLQSGVPSRFSGGGSGTGFTLTISSLQPEDFATYFCLQGSKFPYTFGQGTKLEINRTVAAPSVFIFPPSDEQLKSGTASVVCLLNNFYPREAKVQWKVDNALQSGNSQESVTEQDSKDSTYSLSSTLTLSKADYEKHKVYACEVTHQGLSSPVTKSFNRGECGGGGSGGGGSQVQLVQSGGGVVQPGRSLRLSCKASGYTFTRYTMHWVRQAPGKGLEWIGYINPSRGYTNYNQKVKDRFTISRDNSKNTAFLQMDSLRPEDTGVYFCARYYDDHYSLDYWGQGTPVTVSSGGGGSGGGGSGGGGSDIQMTQSPSSLSASVGDRVTITCSASSSVSYMNWYQQTPGKAPKRWIYDTSKLASGVPSRFSGSGSGTDYTFTISSLQPEDIATYYCQQWSSNPFTFGQGTKLQITR | 850 pM
< 0.001 nM | Antibody 104 (bispecific antibody, human IgG1, kappa, L234A L235A) chain 1: not shown chain 2: DIQMTQSPSSLSASVGDRVTITCLASEDIYSYLAWYQQKPGKAPKLLIFAANRLQSGVPSRFSGSGSGTDFTLTISSLQPEDFATYYCLQGSKFPYTFGPGTKVDIKRTVAAPSVFIFPPSDEQLKSGTASVVCLLNNFYPREAKVQWKVDNALQSGNSQESVTEQDSKDSTYSLSSTLTLSKADYEKHKVYACEVTHQGLSSPVTKSFNRGECGGGGSGGGGSQVQLVQSGGGVVQPGRSLRLSCKASGYTFTRYTMHWVRQAPGKGLEWIGYINPSRGYTNYNQKVKDRFTISRDNSKNTAFLQMDSLRPEDTGVYFCARYYDDHYSLDYWGQGTPVTVSSGGGGSGGGGSGGGGSDIQMTQSPSSLSASVGDRVTITCSASSSVSYMNWYQQTPGKAPKRWIYDTSKLASGVPSRFSGSGSGTDYTFTISSLQPEDIATYYCQQWSSNPFTFGQGTKLQITR | 621 pM
4.99 nM | Antibody 106 (bispecific antibody) chain 1: QVQLVQSGAEVKKPGSSVKVSCKASGYTFTRNFIHWIRQAPGQGLEWIGWIFPGDADTEYNQKFSGRATITADKSTSTAYMELSSLRSEDTAVYYCARGNYNYEYFDYWGQGTMVTVSSASTKGPSVFPLAPSSKSTSGGTAALGCLVKDYFPEPVTVSWNSGALTSGVHTFPAVLQSSGLYSLSSVVTVPSSSLGTQTYICNVNHKPSNTKVDKRVEPKSCGGGGSQVQLVQSGGGVVQPGRSLRLSCKASGYTFTRYTMHWVRQAPGKGLEWIGYINPSRGYTNYNQKVKDRFTISRDNSKNTAFLQMDSLRPEDTGVYFCARYYDDHYSLDYWGQGTPVTVSSGGGGSGGGGSGGGGSDIQMTQSPSSLSASVGDRVTITCSASSSVSYMNWYQQTPGKAPKRWIYDTSKLASGVPSRFSGSGSGTDYTFTISSLQPEDIATYYCQQWSSNPFTFGQGTKLQITRHHHHHH chain 2: DIQMTQSPSSLSASVGDRVTITCLASEDIYSYLAWYQQKPGKAPKLLIFAANRLQDGVPSRFSGSGSGTDFTLTISSLQPEDFATYYCLQGSKFPYTFGPGTKVDIKRTVAAPSVFIFPPSDEQLKSGTASVVCLLNNFYPREAKVQWKVDNALQSGNSQESVTEQDSKDSTYSLSSTLTLSKADYEKHKVYACEVTHQGLSSPVTKSFNRGEC | 2560 pM
9.91 nM | Antibody 109 (bispecific antibody) chain 1: not shown chain 2: DIQMTQSPSSLSASVGDRVTITCLASEDIYSYLAWYQQKPGKAPKLLIFAANRLQSGVPSRFSGSGSGTDFTLTISSLQPEDFATYYCLQGSKFPYTFGPGTKVDIKRTVAAPSVFIFPPSDEQLKSGTASVVCLLNNFYPREAKVQWKVDNALQSGNSQESVTEQDSKDSTYSLSSTLTLSKADYEKHKVYACEVTHQGLSSPVTKSFNRGEC chain 3: DKTHTCPPCPAPEAAGGPSVFLFPPKPKDTLMISRTPEVTCVVVDVSHEDPEVKFNWYVDGVEVHNAKTKPREEQYNSTYRVVSVLTVLHQDWLNGKEYKCKVSNKALPAPIEKTISKAKGQPREPQVCTLPPSREEMTKNQVSLSCAVKGFYPSDIAVEWESNGQPENNYKTTPPVLDSDGSFFLVSKLTVDKSRWQQGNVFSCSVMHEALHNHYTQKSLSLSPGK | 3800 pM
12.1 nM | Antibody 107 (bispecific antibody) chain 1: not shown chain 2: DIQMTQSPSSLSASVGDRVTITCLASEDIYSYLAWYQQKPGKAPKLLIFAANRLQDGVPSRFSGSGSGTDFTLTISSLQPEDFATYYCLQGSKFPYTFGPGTKVDIKRTVAAPSVFIFPPSDEQLKSGTASVVCLLNNFYPREAKVQWKVDNALQSGNSQESVTEQDSKDSTYSLSSTLTLSKADYEKHKVYACEVTHQGLSSPVTKSFNRGEC chain 3: DKTHTCPPCPAPEAAGGPSVFLFPPKPKDTLMISRTPEVTCVVVDVSHEDPEVKFNWYVDGVEVHNAKTKPREEQYNSTYRVVSVLTVLHQDWLNGKEYKCKVSNKALPAPIEKTISKAKGQPREPQVCTLPPSREEMTKNQVSLSCAVKGFYPSDIAVEWESNGQPENNYKTTPPVLDSDGSFFLVSKLTVDKSRWQQGNVFSCSVMHEALHNHYTQKSLSLSPGK | 3870 pM

— patent publication US20240092890A1 (JUNTENDO EDUCATIONAL FOUNDATION, published 2024)
